Measurements as given in patent US20160166634A1 (Novartis, published 2016).

Each substance was assayed against human APJ receptor (hAPJ) (human) (UniProt P35414) (assay: cell-based or functional assay).
Sequence of human APJ receptor (hAPJ) (human) (P35414 whole entry): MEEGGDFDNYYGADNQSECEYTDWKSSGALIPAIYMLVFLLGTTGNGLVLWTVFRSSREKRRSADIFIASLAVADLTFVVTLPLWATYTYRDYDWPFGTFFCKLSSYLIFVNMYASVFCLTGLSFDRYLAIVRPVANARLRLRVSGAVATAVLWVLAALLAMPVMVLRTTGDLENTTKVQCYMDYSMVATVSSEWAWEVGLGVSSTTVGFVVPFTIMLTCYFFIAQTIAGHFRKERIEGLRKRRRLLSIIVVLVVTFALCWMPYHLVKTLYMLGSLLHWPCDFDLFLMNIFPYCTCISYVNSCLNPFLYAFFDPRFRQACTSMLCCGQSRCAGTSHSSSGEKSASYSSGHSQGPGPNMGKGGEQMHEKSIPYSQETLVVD
“Example 1: Albumin-MPA-O2Oc-O2Oc-O2Oc-O2Oc-Q-R-P-R-L-C*-H-F-G-P-Nle-C*-f-OH (from UniProt P02768 25-609)” was tested, and the hAPJ Ca2+ Flux EC50 was 0.0472 µM. “Example 2: Albumin-TPA-O2Oc-O2Oc-O2Oc-O2Oc-Q-R-P-R-L-C*-H-F-G-P-Nle-C*-f-OH (from UniProt P02768 25-609)” showed a hAPJ Ca2+ Flux EC50 of 0.0924 µM. Substance “Example 3: Albumin-MPA-NHCH2CH2CH2-OCH2CH2OCH2CH2O-CH2CH2CH2NH-C(O)CH2CH2C=O-A-R-P-R-L-S-H-K-G-P-Nle-P-F-OH (from UniProt P02768 25-609)” has a hAPJ Ca2+ Flux EC50 of 0.052 µM.
